Test results as given in PMC9723502.

Target: CsrA-His10 (Escherichia coli K-12, UniProt P69913 1-61)
Assay: EMSA

Binder	binding result
GGGUUCAGGGACGUCAUUACGGGCAGGAUUGCCCACCC (structured_RNA) [FimR2-G23A-G24U]	no binding
GGGUUCAAAGACGUCAUUACGGGCAGGGAUGCCCACCC (structured_RNA) [FimR2 ssRegion mutant]	binds
